The results in this text go back to patent CN110655572A.

Experiment [1] deals with 扎依尔型GP蛋白 (扎依尔型埃博拉病毒 (ZEBOV)). The experiment can be described thus: cell-based or functional assay.
For experiment [2], the target named is 苏丹型GP蛋白 (苏丹型埃博拉病毒 (SUDV)). The experiment can be described thus: cell-based or functional assay.
Experiment [3] has as its target 马尔堡病毒GP蛋白 (马尔堡病毒 (MARV)). Briefly: cell-based or functional assay.
Experiment [4] deals with 扎依尔型GP蛋白 (扎依尔型埃博拉病毒 (ZEBOV)). Briefly: ELISA, GP protein coated on plate, goat anti-human IgG-HRP detection. (In an ELISA, binding on a coated surface is turned into a signal by an enzyme label.)
For experiment [5], the target named is 苏丹型GP蛋白 (苏丹型埃博拉病毒 (SUDV)). The description is as above.
Experiment [6] addresses 马尔堡病毒GP蛋白 (马尔堡病毒 (MARV)). Described as above.

Broadly, the EC50 is the concentration needed to bring the measured effect to its halfway point. Read a high EC50 as lower potency in that assay.

B1: 单克隆抗体40C1L (antibody, V domains shown)
VH: EVQLVQSGAEVKRPGESLKISCKTSGYSFPTYWITWVRQMPGKGLEWMGTIDLSDSETKYSPSFDGQVTISADKSINTAYLQWSSLKASDSATYYCAMRYSNYRTWFNVWGPGVLVTVSS
VL: SYDLTQPPSVSVSPGQTARITCGGDNIGSEAVHWYQQQPPQAPVLVIYYNRERPSGIPERFSGSKSGNTATLTISGVEAGDEADYYCQLWDSSSDYPLFGGGTRLTVL
For B1, the figures for the 假病毒中和 最大半数抑制浓度(IC50) (in experiment [1]; in experiment [2]; with 马尔堡病毒GP蛋白 (马尔堡病毒 (MARV)) [3]) were 25.3 µg/mL, 3.12 µg/mL and 14.5 µg/mL, respectively. For the same molecule, the values for the 50% effective concentration (EC50) (in experiment [4]; in experiment [5]; in the experiment with 马尔堡病毒GP蛋白 (马尔堡病毒 (MARV)) [6]) were 0.697 µg/mL, 2.09 µg/mL and 0.342 µg/mL, respectively.
